Results from patent US20100261778, “Tumor Suppressor Killin” (published 2010).

Target: T1, Killin/N8-50 peptide (Homo sapiens, UniProt B2CW77 SEQ:8-49)
T1 chain: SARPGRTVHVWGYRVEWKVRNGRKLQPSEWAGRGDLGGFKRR
Assay: EMSA; apparent Kd; 20 mM Tris-Cl pH 8.4, 25 mM KCl, 1.5 mM MgCl2, 100 ug/mL BSA, RT
Conditions: protein: synthetic, tags: chemically synthesized 42 aa peptide (Sigma-Genosys, at least 70% purity)
Text: After annealing, probes for artificial replication fork (LL and RL) or double-stranded DNA template (LL and RLM) were end-labeled with α-³²P-dATP (Perkin-Elmer) using Klenow (New England Biolab). Single-stranded oligonucleotide (LL) was end-labeled with […] (Perkin-Elmer) using T4 polynucleotide kinase (New England Biolab). After purifying with Sephadex-G50 spin columns (Roche), the labeled probes (200,000 CPM each) were mixed with an increasing amount of Killin/N8-50 peptide in the presence of 20 mM Tris-Cl (pH 8.4), 25 mM KCl, 1.5 mM MgCl₂ and 100 μg/mL of BSA. The reaction mixtures were incubated at RT for 30 min and separated on a 6% polyacrylamide gel with 1× TBE buffer. After drying the gel onto a Whatman No. 1 filter paper, the DNA-protein complexes were visualized by autoradiography. For binding kinetics, bands from DNA-peptide complex were excised and the radioactivity was determined by scintillation counting. To determine the stability of the DNA-Killin peptide complex, 0.5 μg of either double-stranded (RF form) or single-stranded (viral form) of PhiX174 bacterial phage DNA (New England Biolab) were incubated at room temperature for 30 min with 1 ug of Killin/N8-50 peptide in a 20 μL reaction. The samples were then resolved on a 0.8% TAE agarose gel and stained with ethidium bromide.

Binder: TTTGCACGTCGGATCCGACCCAGACTACGGAGGCC (ssDNA) [LL single-stranded oligonucleotide]
- Kd (label: 32P (T4 PNK)): 500 nM

B1: LL/RL artificial replication fork (structured_DNA)
DNA 1: TTTGCACGTCGGATCCGACCCAGACTACGGAGGCC
DNA 2: CCGGAGGCATCAGACGGTCGGATCCGACGTGC
- Kd (label: 32P (Klenow fill-in), replication fork with unpaired arms): 1000 nM

B2: LL/RLM double-stranded DNA (dsDNA)
DNA 1: B1 DNA 1
DNA 2: GGCCTCCGTAGTCTGGGTCGGATCCGACGTGC
- Kd (label: 32P (Klenow fill-in)): 1000 nM
